Results from PMC11232922.
pEC50: −log10 of the molar value.

Molecular target: human fibrinogen (human) (UniProt P02671)
Test: ELISA

“recombinant gain-of-function (GOF) A1(R1450E)A2A3 mutant of VWF (domain or fragment)” gave a pEC50 of 7.20.

“recombinant wild-type A1A2A3 (WT) domains protein of VWF (domain or fragment)” was tested, and the pEC50 was 7.06.
